Source: the supplement of paper PMC11316812
± gives the standard deviation of the averaged measurements.

Experiments:
[1] = system: hTERT-HMEC; assay: percentage of EdU-negative (G0-arrested) nuclei per well, 72 h; higher = more G0 arrest; conditions: reference: sequence is the full UniProt precursor, the tested protein was the secreted form or ectodomain
[2] = system: MCF7; assay: as above; conditions: reference: sequence is the full UniProt precursor, the tested protein was the secreted form or ectodomain
[3] = protein concentration 0.03125 µM
[4] = protein concentration 0.3125 µM
[5] = protein concentration 0.0225 µM
[6] = protein concentration 0.0261 µM
[7] = protein concentration 0.0294675 µM
[8] = protein concentration 0.294675 µM
[9] = protein concentration 0.0125714 µM
[10] = protein concentration 0.125714 µM
[11] = protein concentration 0.0228571 µM
[12] = protein concentration 0.228571 µM
[13] = protein concentration 0.02775 µM
[14] = protein concentration 0.2775 µM
[15] = protein concentration 0.018845 µM
[16] = protein concentration 0.18845 µM
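Further: secreted proteins added to cultured cells, EdU pulse at the end, nuclei found by Hoechst imaging, EdU status from nuclear versus surrounding ring intensity ratio, PBS as neutral control.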

**Q.** For “MRAPGMRSRPAGPALLLLLLFLGAAESVRRAQPPRRYTPDWPSLDSRPLPAWFDEAKFGVFIHWGVFSVPAWGSEWFWWHWQGEGRPQYQRFMRDNYPPGFSYADFGPQFTARFFHPEEWADLFQAAGAKYVVLTTKHHEGFTNWPSPVSWNWNSKDVGPHRDLVGELGTALRKRNIRYGLYHSLLEWFHPLYLLDKKNGFKTQHFVSAKTMPELYDLVNSYKPDLIWSDGEWECPDTYWNSTNFLSWLYNDSPVKDEVVVNDRWGQNCSCHHGGYYNCEDKFKPQSLPDHKWEMCTSIDKFSWGYRRDMALSDVTEESEIISELVQTVSLGGNYLLNIGPTKDGLIVPIFQERLLAVGKWLSINGEAIYASKPWRVQWEKNTTSVWYTSKGSAVYAIFLHWPENGVLNLESPITTSTTKITMLGIQGDLKWSTDPDKGLFISLPQLPPSAVPAEFAWTIKLTGVK”, which “percentage of EdU-negative” value [1, 3] is on record?
**A.** 5.35 ± 1.3%

**Q.** What about the “percentage of EdU-negative” value [1, 4] of the same sequence?
**A.** 6.003 ± 0.042%

**Q.** And the “percentage of EdU-negative” value [2, 3]?
**A.** 23.7 ± 2%

**Q.** And the “percentage of EdU-negative” value [2, 4]?
**A.** 27.8 ± 1.4%

**Q.** “MRAPHLHLSAASGARALAKLLPLLMAQLWAAEAALLPQNDTRLDPEAYGSPCARGSQPWQVSLFNGLSFHCAGVLVDQSWVLTAAHCGNKPLWARVGDDHLLLLQGEQLRRTTRSVVHPKYHQGSGPILPRRTDEHDLMLLKLARPVVLGPRVRALQLPYRCAQPGDQCQVAGWGTTAARRVKYNKGLTCSSITILSPKECEVFYPGVVTNNMICAGLDRGQDPCQSDSGGPLVCDETLQGILSWGVYPCGSAQHPAVYTQICKYMSWINKVIRSN” was tested. Which “percentage of EdU-negative” value [1, 5] did it give?
**A.** 3.89 ± 0.14%

**Q.** What about the “percentage of EdU-negative” value ([1]; protein concentration 0.225 µM) of the same sequence?
**A.** 6.32 ± 0.7%

**Q.** And the “percentage of EdU-negative” value [2, 5]?
**A.** 26.7 ± 0.38%

**Q.** What about the “percentage of EdU-negative” value ([2]; protein concentration 0.225 µM) of the same sequence?
**A.** 26.9 ± 1.7%

**Q.** With “MRAPLLPPAPVVLSLLILGSGHYAAGLDLNDTYSGKREPFSGDHSADGFEVTSRSEMSSGSEISPVSEMPSSSEPSSGADYDYSEEYDNEPQIPGYIVDDSVRVEQVVKPPQNKTESENTSDKPKRKKKGGKNGKNRRNRKKKNPCNAEFQNFCIHGECKYIEHLEAVTCKCQQEYFGERCGEKSMKTHSMIDSSLSKIALAAIAAFMSAVILTAVAVITVQLRRQYVRKYEGEAEERKKLRQENGNVHAIA” as the sequence, how does the “percentage of EdU-negative” value [1, 6] read?
**A.** 5.2 ± 0.8%

**Q.** What about the “percentage of EdU-negative” value ([1]; protein concentration 0.261 µM) of the same sequence?
**A.** 5.0893 ± 0.0048%

**Q.** And the “percentage of EdU-negative” value [2, 6]?
**A.** 26.1 ± 0.68%

**Q.** And the “percentage of EdU-negative” value ([2]; protein concentration 0.261 µM)?
**A.** 25.9 ± 1.5%

**Q.** Which “percentage of EdU-negative” value ([1]; protein concentration 0.009 µM) does the source give for “MRARPRPRPLWATVLALGALAGVGVGGPNICTTRGVSSCQQCLAVSPMCAWCSDEALPLGSPRCDLKENLLKDNCAPESIEFPVSEARVLEDRPLSDKGSGDSSQVTQVSPQRIALRLRPDDSKNFSIQVRQVEDYPVDIYYLMDLSYSMKDDLWSIQNLGTKLATQMRKLTSNLRIGFGAFVDKPVSPYMYISPPEALENPCYDMKTTCLPMFGYKHVLTLTDQVTRFNEEVKKQSVSRNRDAPEGGFDAIMQATVCDEKIGWRNDASHLLVFTTDAKTHIALDGRLAGIVQPNDGQCHVGSDNHYSASTTMDYPSLGLMTEKLSQKNINLIFAVTENVVNLYQNYSELIPGTTVGVLSMDSSNVLQLIVDAYGKIRSKVELEVRDLPEELSLSFNATCLNNEVIPGLKSCMGLKIGDTVSFSIEAKVRGCPQEKEKSFTIKPVGFKDSLIVQVTFDCDCACQAQAEPNSHRCNNGNGTFECGVCRCGPGWLGSQCECSEEDYRPSQQDECSPREGQPVCSQRGECLCGQCVCHSSDFGKITGKYCECDDFSCVRYKGEMCSGHGQCSCGDCLCDSDWTGYYCNCTTRTDTCMSSNGLLCSGRGKCECGSCVCIQPGSYGDTCEKCPTCPDACTFKKECVECKKFDRGALHDENTCNRYCRDEIESVKELKDTGKDAVNCTYKNEDDCVVRFQYYEDSSGKSILYVVEEPECPKGPDILVVLLSVMGAILLIGLAALLIWKLLITIHDRKEFAKFEEERARAKWDTANNPLYKEATSTFTNITYRGT” here?
**A.** 4.78 ± 0.31%

**Q.** What about the “percentage of EdU-negative” value ([1]; protein concentration 0.09 µM) of the same sequence?
**A.** 16.9 ± 4.2%

**Q.** What about the “percentage of EdU-negative” value ([2]; protein concentration 0.009 µM) of the same sequence?
**A.** 26.2 ± 0.6%

**Q.** What about the “percentage of EdU-negative” value ([2]; protein concentration 0.09 µM) of the same sequence?
**A.** 27.7 ± 1.2%

**Q.** Which results are given for “MRARRGLLRLPRRSLLAALFFFSLSSSLLYFVYVAPGIVNTYLFMMQAQGILIRDNVRTIGAQVYEQVLRSAYAKRNSSVNDSDYPLDLNHSETFLQTTTFLPEDFTYFANHTCPERLPSMKGPIDINMSEIGMDYIHELFSKDPTIKLGGHWKPSDCMPRWKVAILIPFRNRHEHLPVLFRHLLPMLQRQRLQFAFYVVEQVGTQPFNRAMLFNVGFQEAMKDLDWDCLIFHDVDHIPESDRNYYGCGQMPRHFATKLDKYMYLLPYTEFFGGVSGLTVEQFRKINGFPNAFWGWGGEDDDLWNRVQNAGYSVSRPEGDTGKYKSIPHHHRGEVQFLGRYALLRKSKERQGLDGLNNLNYFANITYDALYKNITVNLTPELAQVNEY”?
**A.** percentage of EdU-negative ([1]; protein concentration 0.016 µM): 5.58 ± 0.37%; percentage of EdU-negative ([1]; protein concentration 0.16 µM): 20.8 ± 1.2%; percentage of EdU-negative ([2]; protein concentration 0.016 µM): 24.5 ± 0.93%; percentage of EdU-negative ([2]; protein concentration 0.16 µM): 30.8 ± 1.6%

**Q.** What does the source list for “MRAWIFFLLCLAGRALAAPQQEALPDETEVVEETVAEVTEVSVGANPVQVEVGEFDDGAEETEEEVVAENPCQNHHCKHGKVCELDENNTPMCVCQDPTSCPAPIGEFEKVCSNDNKTFDSSCHFFATKCTLEGTKKGHKLHLDYIGPCKYIPPCLDSELTEFPLRMRDWLKNVLVTLYERDEDNNLLTEKQKLRVKKIHENEKRLEAGDHPVELLARDFEKNYNMYIFPVHWQFGQLDQHPIDGYLSHTELAPLRAPLIPMEHCTTRFFETCDLDNDKYIALDEWAGCFGIKQKDIDKDLVI”?
**A.** percentage of EdU-negative [1, 7]: 4.83 ± 0.18%; percentage of EdU-negative [1, 8]: 5.23 ± 0.79%; percentage of EdU-negative [2, 7]: 26.73 ± 0.018%; percentage of EdU-negative [2, 8]: 24.8 ± 0.39%

**Q.** How did the “percentage of EdU-negative” value [1, 9] turn out when “MRENMARGPCNAPRWASLMVLVAIGTAVTAAVNPGVVVRISQKGLDYASQQGTAALQKELKRIKIPDYSDSFKIKHLGKGHYSFYSMDIREFQLPSSQISMVPNVGLKFSISNANIKISGKWKAQKRFLKMSGNFDLSIEGMSISADLKLGSNPTSGKPTITCSSCSSHINSVHVHISKSKVGWLIQLFHKKIESALRNKMNSQVCEKVTNSVSSELQPYFQTLPVMTKIDSVAGINYGLVAPPATTAETLDVQMKGEFYSENHHNPPPFAPPVMEFPAAHDRMVYLGLSDYFFNTAGLVYQEAGVLKMTLRDDMIPKESKFRLTTKFFGTFLPEVAKKFPNMKIQIHVSASTPPHLSVQPTGLTFYPAVDVQAFAVLPNSSLASLFLIGMHTTGSMEVSAESNRLVGELKLDRLLLELKHSNIGPFPVELLQDIMNYIVPILVLPRVNEKLQKGFPLPTPARVQLYNVVLQPHQNFLLFGADVVYK” was run?
**A.** 6.02 ± 1.5%

**Q.** What about the “percentage of EdU-negative” value [1, 10] of the same sequence?
**A.** 35.1 ± 4%

**Q.** What about the “percentage of EdU-negative” value [2, 9] of the same sequence?
**A.** 24.5 ± 2.8%

**Q.** And the “percentage of EdU-negative” value [2, 10]?
**A.** 29.1 ± 5%

**Q.** What does the source list for “MRERPRLGEDSSLISLFLQVVAFLAMVMGTHTYSHWPSCCPSKGQDTSEELLRWSTVPVPPLEPARPNRHPESCRASEDGPLNSRAISPWRYELDRDLNRLPQDLYHARCLCPHCVSLQTGSHMDPRGNSELLYHNQTVFYRRPCHGEKGTHKGYCLERRLYRVSLACVCVRPRVMG [Q9H293]”?
**A.** percentage of EdU-negative [1, 11]: 5.07 ± 0.33%; percentage of EdU-negative [1, 12]: 5.25 ± 1%; percentage of EdU-negative [2, 11]: 24 ± 0.49%; percentage of EdU-negative [2, 12]: 36.9 ± 1.7%

**Q.** Which “percentage of EdU-negative” value [1, 13] does the source give for “MRFFCARCCSFGPEMPAVQLLLLACLVWDVGARTAQLRKANDQSGRCQYTFSVASPNESSCPEQSQAMSVIHNLQRDSSTQRLDLEATKARLSSLESLLHQLTLDQAARPQETQEGLQRELGTLRRERDQLETQTRELETAYSNLLRDKSVLEEEKKRLRQENENLARRLESSSQEVARLRRGQCPQTRDTARAVPPGSREVSTWNLDTLAFQELKSELTEVPASRILKESPSGYLRSGEGDTGCGELVWVGEPLTLRTAETITGKYGVWMRDPKPTYPYTQETTWRIDTVGTDVRQVFEYDLISQFMQGYPSKVHILPRPLESTGAVVYSGSLYFQGAESRTVIRYELNTETVKAEKEIPGAGYHGQFPYSWGGYTDIDLAVDEAGLWVIYSTDEAKGAIVLSKLNPENLELEQTWETNIRKQSVANAFIICGTLYTVSSYTSADATVNFAYDTGTGISKTLTIPFKNRYKYSSMIDYNPLEKKLFAWDNLNMVTYDIKLSKM” here?
**A.** 5.22 ± 0.79%

**Q.** And the “percentage of EdU-negative” value [1, 14]?
**A.** 5.83 ± 0.68%

**Q.** And the “percentage of EdU-negative” value [2, 13]?
**A.** 23.1 ± 3.6%

**Q.** And the “percentage of EdU-negative” value [2, 14]?
**A.** 22.8 ± 0.49%

**Q.** With “MRFLAATFLLLALSTAAQAEPVQFKDCGSVDGVIKEVNVSPCPTQPCQLSKGQSYSVNVTFTSNIQSKSSKAVVHGILMGVPVPFPIPEPDGCKSGINCPIQKDKTYSYLNKLPVKSEYPSIKLVVEWQLQDDKNQSLFCWEIPVQIVSHL” as the sequence, how does the “percentage of EdU-negative” value [1, 3] read?
**A.** 4.48 ± 0.41%

**Q.** What about the “percentage of EdU-negative” value [1, 4] of the same sequence?
**A.** 5.49 ± 0.12%

**Q.** What about the “percentage of EdU-negative” value [2, 3] of the same sequence?
**A.** 25.6 ± 0.29%

**Q.** What about the “percentage of EdU-negative” value [2, 4] of the same sequence?
**A.** 27.1 ± 2%

**Q.** “MRGAARAAWGRAGQPWPRPPAPGPPPPPLPLLLLLLAGLLGGAGAQYSSDRCSWKGSGLTHEAHRKEVEQVYLRCAAGAVEWMYPTGALIVNLRPNTFSPARHLTVCIRSFTDSSGANIYLEKTGELRLLVPDGDGRPGRVQCFGLEQGGLFVEATPQQDIGRRTTGFQYELVRRHRASDLHELSAPCRPCSDTEVLLAVCTSDFAVRGSIQQVTHEPERQDSAIHLRVSRLYRQKSRVFEPVPEGDGHWQGRVRTLLECGVRPGHGDFLFTGHMHFGEARLGCAPRFKDFQRMYRDAQERGLNPCEVGTD [Q641Q3]” was tested. Which “percentage of EdU-negative” value [1, 15] did it give?
**A.** 5.45 ± 1.1%

**Q.** And the “percentage of EdU-negative” value [1, 16]?
**A.** 18.2 ± 6%

**Q.** And the “percentage of EdU-negative” value [2, 15]?
**A.** 26.1 ± 2.3%

**Q.** What about the “percentage of EdU-negative” value [2, 16] of the same sequence?
**A.** 35.6 ± 1.1%
